{
  "source": "patent US20250152742A1",
  "about": "“COMPOSITIONS AND METHODS FOR NEUROLOGICAL DISEASES” (Trames Bio, Inc., priority 2022, published 2025)",
  "system": "engineered chimeric receptor SEQ ID NO: 33 and its mutants (human α7-nAChR ligand binding domain / human GlyRα1 ion pore domain) in Lenti-X 293T cells",
  "assay": "YFP fluorescence quenching anion reporter plate reader assay (percent quench, EC50)",
  "type": "cell-based",
  "details": "for YFP fluorescence quenching using CNL001 (percent quench): receptor named in row; for YFP fluorescence quenching using Varenicline, 3 nM var: ligand Varenicline 3 nM; for YFP fluorescence quenching using Varenicline, 30 nM var: ligand Varenicline 30 nM; for YFP fluorescence quenching using Varenicline, 300 nM var: ligand Varenicline 300 nM; for YFP fluorescence quenching using Varenicline, 500 nM var: ligand Varenicline 500 nM; for YFP fluorescence quenching using Varenicline, 1 uM var: ligand Varenicline 1 uM",
  "text": "To screen these mutant LGICs for those having novel response profiles to ligands, an anion reporter assay was developed to assess the function of the LGICs in a high throughput format. In this assay, cells expressing a YFP reporter whose fluorescence is quenched in the presence of anion are transfected with DNA encoding the channel of interest. Upon exposure to ligand, channels that are activated will flux anion, resulting in a dose-dependent quench of the YFP that can be detected on a plate reader. The greater the quench signal (i.e., the more positive the value), the higher the ligand activity on the receptor is.\nLenti-X 293T cells (LX293T, Clontech) were maintained in DMEM containing 10% FBS and 1% penicillin/streptomycin (Invitrogen). […] Two days before assay, cells were split at a density of 20,000 cells/well in a 96-well tissue culture plate coated with poly-d lysine (Thermo Scientific). The next day, the cells were transiently transfected with 0.1 μg of DNA per well using standard Fugene protocol (Promega). On the day of assay, cells were washed 2 times in 1X extracellular solution (1X ECS: 140 mM NaCl, 5 mM KCl, 1 mM MgCl2, 2 mM CaCl2, 10 mM HEPES, 10 mM glucose, pH 7.2, mOsms 300). After the last wash, 100 μL of 1X ECS was added to the wells and the plate was incubated at 37° C. for 30 min. While incubating the plate, the drugs were diluted to a 2X concentration in 1X ECS-Nal (same components as 1X ECS except the 140 mM NaCl was replaced by 140 mM Nal). The plates were then read on a Flexstation3 (Molecular Devices). Each well, 8 wells at a time, of the plate is read for 2 min using a Flexstation3 (Molecular Devices) as follows: 1) a baseline YFP fluorescence is read for 17 sec, 2) 100 μL of ligand is added, and 3) the changes in YFP fluorescence are then measured every 1.3 sec for 1 minute and 43 seconds. The percent quench is calculated from the average fluorescence of the last 10 seconds of the read divided by the baseline average of the first 15 seconds prior to the ligand addition.\nFIGS. 1A-1J provide heat maps of the percent quench of YFP fluorescence following stimulation by various doses of either acetylcholine or the non-native ligand as indicated in the Figures. CODA71 (SEQ ID NO: 33) was used as a control, and CODA75 (SEQ ID NO: 29, a non-responding chimeric engineered receptor) was used as the negative control. Quenching of the fluorescence signal, as indicated by blue shaded cells, indicate the level of engineered receptor activation by the non-native ligand at that concentration.",
  "data": [
    {"molecule": "CODA325: engineered receptor: L131G in SEQ ID NO: 33 (protein, synthetic sequence of chimeric LGIC) MRCSPGGVWLALAASLLHVSLQGEFQRKLYKELVKNYNPLERPVANDSQPLTVYFSLSLLQIMDVDEKNQVLTTNIWLQMSWTDHYLQWNVSEYPGVKTVRFPDGQIWKPDILLYNSADERFDATFHTNVGVNSSGHCQYLPPGIFKSSCPMDLKNFPMDVQTCKLKFGSWSYGGWSLDLQMQEADISGYIPNGEWDLVGIPGKRSERFYECCKEPYPDVTFTVTMRRRMGYYLIQMYIPSLLIVILSWISFWINMDAAPARVGLGITTVLTMTTQSSGSRASLPKVSYVKAIDIWMAVCLLFVFSALLEYAAVNFVSRQHKELLRFRRKRRHHKSPMLNLFQEDEAGEGRFNFSAYGMGPACLQAKDGISVKGANNSNTTNPPPAPSKSPEEMRKLFIQRAKKIDKISRIGFPMAFLIFNMFYWIIYKIVRREDVHNQ", "values": [
      {"measurement": "YFP fluorescence quenching using CNL001 (percent quench)", "setting": "1 nM CNL001, first column so headed", "value": 74.429, "unit": "%"},
      {"measurement": "YFP fluorescence quenching using CNL001 (percent quench)", "setting": "1 nM CNL001, second column so headed", "value": 78.715, "unit": "%"},
      {"measurement": "YFP fluorescence quenching using TC-5619/Bradanicline (percent quench)", "setting": "3 nM brd (TC-5619/Bradanicline)", "value": 68.45, "unit": "%"},
      {"measurement": "YFP fluorescence quenching using CNL001 (percent quench)", "setting": "10 nM CNL001, first column so headed", "value": 79.033, "unit": "%"},
      {"measurement": "YFP fluorescence quenching using CNL001 (percent quench)", "setting": "10 nM CNL001, second column so headed", "value": 79.322, "unit": "%"},
      {"measurement": "YFP fluorescence quenching using TC-6683 (percent quench)", "setting": "30 nM TC-6683", "value": "−21.27", "unit": "%"},
      {"measurement": "YFP fluorescence quenching using TC-5619/Bradanicline (percent quench)", "setting": "30 nM brd (TC-5619/Bradanicline)", "value": 76.95, "unit": "%"},
      {"measurement": "YFP fluorescence quenching using CNL001 (percent quench)", "setting": "50 nM CNL001, first column so headed", "value": 79.966, "unit": "%"},
      {"measurement": "YFP fluorescence quenching using CNL001 (percent quench)", "setting": "50 nM CNL001, second column so headed", "value": 80.091, "unit": "%"},
      {"measurement": "YFP fluorescence quenching using ABT-126 (percent quench)", "setting": "50 nM abt (ABT-126)", "value": "−17.39", "unit": "%"},
      {"measurement": "YFP fluorescence quenching using CNL001 (percent quench)", "setting": "100 nM CNL001, first column so headed", "value": 81, "unit": "%"},
      {"measurement": "YFP fluorescence quenching using CNL001 (percent quench)", "setting": "100 nM CNL001, second column so headed", "value": 79.701, "unit": "%"},
      {"measurement": "YFP fluorescence quenching (percent quench)", "setting": "100 nM CNL002", "value": 45.62, "unit": "%"},
      {"measurement": "YFP fluorescence quenching using ABT-126 (percent quench)", "setting": "100 nM abt (ABT-126)", "value": 6.89, "unit": "%"},
      {"measurement": "YFP fluorescence quenching using AZD-0328 (percent quench)", "setting": "100 nM azd0328", "value": 79.75, "unit": "%"},
      {"measurement": "YFP fluorescence quenching using TC-6683 (percent quench)", "setting": "300 nM TC-6683", "value": "−18.33", "unit": "%"},
      {"measurement": "YFP fluorescence quenching using ABT-126 (percent quench)", "setting": "300 nM abt (ABT-126)", "value": 38.65, "unit": "%"},
      {"measurement": "YFP fluorescence quenching using AZD-0328 (percent quench)", "setting": "300 nM azd0328", "value": 80.62, "unit": "%"},
      {"measurement": "YFP fluorescence quenching using TC-5619/Bradanicline (percent quench)", "setting": "300 nM brd (TC-5619/Bradanicline)", "value": 77.1, "unit": "%"},
      {"measurement": "YFP fluorescence quenching using CNL001 (percent quench)", "setting": "1 uM CNL001, first column so headed", "value": 79.289, "unit": "%"},
      {"measurement": "YFP fluorescence quenching using CNL001 (percent quench)", "setting": "1 uM CNL001, second column so headed", "value": 80.581, "unit": "%"},
      {"measurement": "YFP fluorescence quenching (percent quench)", "setting": "1 uM CNL002", "value": 74.72, "unit": "%"},
      {"measurement": "YFP fluorescence quenching using ABT-126 (percent quench)", "setting": "1 uM abt (ABT-126)", "value": 45.82, "unit": "%"},
      {"measurement": "YFP fluorescence quenching using TC-6683 (percent quench)", "setting": "3 uM TC-6683", "value": "−7.03", "unit": "%"},
      {"measurement": "YFP fluorescence quenching (percent quench)", "setting": "10 uM ach (acetylcholine)", "value": 5.66, "unit": "%"},
      {"measurement": "YFP fluorescence quenching (percent quench)", "setting": "30 uM CNL002", "value": 77.4, "unit": "%"},
      {"measurement": "YFP fluorescence quenching using TC-6683 (percent quench)", "setting": "30 uM TC-6683", "value": 56.84, "unit": "%"},
      {"measurement": "YFP fluorescence quenching using AZD-0328 (percent quench)", "setting": "30 uM azd0328", "value": 80.19, "unit": "%"},
      {"measurement": "YFP fluorescence quenching using TC-6683 (percent quench)", "setting": "100 uM TC-6683", "value": 64.51, "unit": "%"},
      {"measurement": "YFP fluorescence quenching (percent quench)", "setting": "100 uM ach (acetylcholine)", "value": 74.07, "unit": "%"},
      {"measurement": "YFP fluorescence quenching (percent quench)", "setting": "1 mM ach (acetylcholine)", "value": 62.65, "unit": "%"},
      {"measurement": "YFP fluorescence quenching (percent quench)", "setting": "3 mM ach (acetylcholine)", "value": 69.49, "unit": "%"},
      {"measurement": "YFP fluorescence quenching using Facinicline, 30 nM fac", "setting": "ligand Facinicline 30 nM", "value": 75.75},
      {"measurement": "YFP fluorescence quenching using Facinicline, 300 nM fac", "setting": "ligand Facinicline 300 nM", "value": 78.01},
      {"measurement": "YFP fluorescence quenching using Facinicline, 30 uM fac", "setting": "ligand Facinicline 30 uM", "value": 76.61},
      {"measurement": "YFP fluorescence quenching using TC-6987, 1 uM tc6987", "setting": "ligand TC-6987 1 uM", "value": 64.59},
      {"measurement": "YFP fluorescence quenching using TC-6987, 10 uM tc6987", "setting": "ligand TC-6987 10 uM", "value": 76.28},
      {"measurement": "YFP fluorescence quenching using TC-6987, 500 uM tc6987", "setting": "ligand TC-6987 500 uM", "value": 70.95},
      {"measurement": "YFP fluorescence quenching using Varenicline, 3 nM var", "setting": "first column", "value": "−12.241"},
      {"measurement": "YFP fluorescence quenching using Varenicline, 3 nM var", "setting": "second column", "value": "−9.415"},
      {"measurement": "YFP fluorescence quenching using Varenicline, 30 nM var", "setting": "first column", "value": 75.334},
      {"measurement": "YFP fluorescence quenching using Varenicline, 30 nM var", "setting": "second column", "value": 72.278},
      {"measurement": "YFP fluorescence quenching using Varenicline, 300 nM var", "setting": "first column", "value": 78.305},
      {"measurement": "YFP fluorescence quenching using Varenicline, 300 nM var", "setting": "second column", "value": 77.83},
      {"measurement": "YFP fluorescence quenching using Varenicline, 500 nM var", "setting": "first column", "value": 75.936},
      {"measurement": "YFP fluorescence quenching using Varenicline, 500 nM var", "setting": "second column", "value": 76.788},
      {"measurement": "YFP fluorescence quenching using Varenicline, 1 uM var", "setting": "first column", "value": 77.805},
      {"measurement": "YFP fluorescence quenching using Varenicline, 1 uM var", "setting": "second column", "value": 77.352}
    ]}
  ]
}
